# Where two headings read alike, the source gives them in different places.
# Tests used:
# [1] = system: cells expressing the integrin αvβ6; test: Internalization assay; type: cell-based; conditions: all cells expressing the integrin αvβ6; acidic wash pH 2.5; γ-counter
# Description: Binding to cells with minimal to no expression of integrin αvβ6 was low at 4.4 ± 0.1% to DX3puro cells and 7.9 ± 0.4% to pancreatic MIA PaCa-2 cells. Binding of [^64Cu]PDC-1 to DX3puroβ6 (+) and BxPC-3 (+) was reduced by adding increasing amounts of DOTA-PDC-1, illustrating that the αvβ6-selective uptake could be blocked (Figure S3). Internalization of [^64Cu]-PDC-1 into cells was high with >50% of the bound radioactivity internalized for all cells expressing the integrin αvβ6. In comparison, cell binding of [^64Cu]2 to DX3puroβ6 (+) cells was 58.8 ± 2.3, and 3.3 ± 0.4% to the DX3puro (−) cells.
# Cell binding and internalization assay. Binding and internalization were determined as previously described. […] The fraction of bound radioactivity was determined with a γ-counter (by measuring cell pellet and combined supernatants). To determine the fraction of internalized radioactivity, the cells were re-pelleted, and re-suspended in acidic wash buffer (0.2 M sodium acetate, 0.5 M sodium chloride, pH = 2.5, 300 μL, 4 °C, 5 min) to release surface bound activity, followed by a wash with PBS (300 μL). The internalized fraction was determined with a γ-counter (cell pellet vs. radioactivity released into supernatant). A Wizard 1470 or Wizard 2 2470 automatic γ-counter (Perkin-Elmer, Waltham, MA) was used to measure radioactivity samples. […]
# [2] = Blocking biodistribution, BxPC-3 model; type: in vivo, mice; conditions: female, athymic nude, mouse, iv, total radioactivity, 4 h p.i., DOTA-2 (50 mg/kg, 205 nmol) i.v. 10 min prior, γ-counter, mean ± SD, n = 2
# Procedure: Aliquots of the formulated [^64Cu]PDC-1 in isotonic 0.9% saline (4.81–5.74 MBq, 1.7–2.1 μg, 0.26–0.31 nmol, 100 μL, pH 7.2) were injected i.v. as described above. Following the conscious uptake period, the mice were anesthetized (5% isoflurane), euthanized, and dissected (n ≥ 3/model/time point [4, 24, and 48 h]; the 48 h time point also included the imaging animals sacrificed after the PET scans). Tissues were collected, washed, weighed, and radioactivity measured in a γ-counter. Calibrated, decay-corrected radioactivity was expressed as the percentage of injected dose per gram of tissue (% ID/g). Data are reported as mean ± SD. The mean weights and standard deviation of the DX3puroβ6/DX3puro paired tumor model biodistribution mice were 24.3 ± 1.4 g at 4 h, 28.2 ± 2.9 g at 24 h, and 27.7 ± 2.6 g at 48 h. The mean weights and standard deviation of the BxPC-3 tumor model biodistribution mice were 25.1 ± 1.9 g at 4 h, 27.0 ± 1.1 g at 24 h and 27.1 ± 3.2 g at 48 h. For in vivo blocking studies, DOTA-2 (50 mg/kg, 205 nmol, 1.4 mg in 100 μL 0.9% saline) was injected i.v. into two animals/tumor model 10 min prior to [^64Cu]PDC-1. The animals were sacrificed after 4 h, tissues collected, washed, weighed, and radioactivity measured in a γ-counter. The mean weights and standard deviation for the blocking mice were 24.6 ± 0 and 27.9 ± 0.3 g for the DX3puroβ6/DX3puro paired and BxPC-3 tumor models, respectively.
# Blocking biodistribution data of [64Cu]PDC-1 in paired DX3puroβ6/DX3puro and BxPC-3 tumor models.
# Tumor Model DX3puroβ6/DX3puro BxPC-3
# Table S6. Blocking biodistribution data of [ 64Cu]PDC-1 in paired DX3puroβ6/DX3puro and BxPC-3 tumor
# models. Tissue uptake is expressed as the mean of the percentage of injected dose per gram of tissue ±
# SD (n = 2/model, n/a = not applicable. P = 0.53 for DX3puroβ6 vs. DX3puro; P = 0.52 for BxPC-3 vs.
structure (smiles),measurement,setting,value
"CC[C@H](C)[C@@H]([C@@H](CC(=O)N1CCC[C@H]1[C@H](OC)[C@@H](C)C(=O)N[C@H](C)[C@@H](O)c1ccccc1)OC)N(C)C(=O)[C@@H](NC(=O)[C@H](C(C)C)N(C)C(=O)OCc1ccc(NC(=O)[C@H](CCCNC(N)=O)NC(=O)[C@@H](NC(=O)CCOCCOCCNC(=O)CCN2C(=O)CC(SC[C@H](NC(=O)CN3CCN(CC(=O)O)CCN(CC(=O)O)CCN(CC(=O)O)CC3)C(=O)NCCOCCOCCOCCOCCOCCOCCOCCOCCOCCOCCOCCOCCOCCOCCOCCOCCOCCOCCOCCOCCOCCOCCOCCOCCOCCOCCOCCOCCC(=O)N[C@@H](CC(N)=O)C(=O)N[C@@H](C)C(=O)N[C@H](C(=O)N3CCC[C@H]3C(=O)N[C@@H](CC(N)=O)C(=O)N[C@@H](CC(C)C)C(=O)N[C@@H](CCCNC(=N)N)C(=O)NCC(=O)N[C@@H](CC(=O)O)C(=O)N[C@@H](CC(C)C)C(=O)N[C@@H](CCC(N)=O)C(=O)N[C@H](C(=O)N[C@@H](CC(C)C)C(=O)N[C@@H](C)C(=O)N[C@@H](CCC(N)=O)C(=O)N[C@@H](CCCNC(=N)N)C(=O)N[C@H](C(=O)N[C@@H](C)C(=O)N[C@@H](CCCNC(=N)N)C(=O)N[C@H](C(=O)NCCOCCOCCOCCOCCOCCOCCOCCOCCOCCOCCOCCOCCOCCOCCOCCOCCOCCOCCOCCOCCOCCOCCOCCOCCOCCOCCOCCOCCC(N)=O)[C@@H](C)O)C(C)C)C(C)C)C(C)C)C2=O)C(C)C)cc1)C(C)C (some centres unmarked) [[^64Cu]PDC-1, metal not drawn]","Internalization, fraction of the bound radioactivity internalized",[1],> 50%
same,tissue uptake at 4 h,"[2]; BxPC-3 (αvβ6 +) tumor, read-out: Tumor (αvβ6 +) BxPC-3 uptake, blocked",0.61 ± 0.05 %ID/g
same,tissue uptake at 4 h,"[2]; blood, read-out: Blood uptake, blocked",0.1 ± 0.02 %ID/g
same,tissue uptake at 4 h,"[2]; bone, read-out: Bone uptake, blocked",0.14 ± 0.03 %ID/g
same,tissue uptake at 4 h,"[2]; brain, read-out: Brain uptake, blocked",0.01 ± 0.01 %ID/g
same,tissue uptake at 4 h,"[2]; gall bladder, read-out: Gall Bladder uptake, blocked",0.94 ± 0.35 %ID/g
same,tissue uptake at 4 h,"[2]; heart, read-out: Heart uptake, blocked",0.21 ± 0.06 %ID/g
same,tissue uptake at 4 h,"[2]; kidney, read-out: Kidney uptake, blocked",25.7 ± 2.55 %ID/g
same,tissue uptake at 4 h,"[2]; large intestines, read-out: Large Intestines uptake, blocked",0.47 ± 0.08 %ID/g
same,tissue uptake at 4 h,"[2]; liver, read-out: Liver uptake, blocked",1.01 ± 0.16 %ID/g
same,tissue uptake at 4 h,"[2]; lung, read-out: Lung uptake, blocked",0.51 ± 0.16 %ID/g
same,tissue uptake at 4 h,"[2]; muscle, read-out: Muscle uptake, blocked",0.07 ± 0.01 %ID/g
same,tissue uptake at 4 h,"[2]; pancreas, read-out: Pancreas uptake, blocked",0.12 ± 0.01 %ID/g
same,tissue uptake at 4 h,"[2]; skin, read-out: Skin uptake, blocked",0.31 ± 0.02 %ID/g
same,tissue uptake at 4 h,"[2]; small intestines, read-out: Small Intestines uptake, blocked",0.51 ± 0.09 %ID/g
same,tissue uptake at 4 h,"[2]; spleen, read-out: Spleen uptake, blocked",0.22 ± 0.03 %ID/g
same,tissue uptake at 4 h,"[2]; stomach, read-out: Stomach uptake, blocked",0.38 ± 0.04 %ID/g

# Reference: publication PMC10388305, “Synthesis and Evaluation of a Monomethyl Auristatin E—Integrin αvβ6 Binding Peptide–Drug Conjugate for Tumor Targeted Drug Delivery” (Journal of Medicinal Chemistry, 2023)
